Experimental data taken from patent US20190127434.

Tested on: K6UbKMRC011

USP1 (ubiquitin-specific protease 1)
cleavage by USP1, SDS-PAGE analysis (10 mg/L enzyme, 37 C, 12 hours): most of the refolded K6UbKMRC011 was cleaved by USP1 and separated into K6Ub and KMRC011
cleavage by ubiquitin cleavage enzymes, SDS-PAGE analysis (10 mg/L enzyme, 37 C, 12 hours): the refolded K6UbKMRC011 was cleaved by the ubiquitin cleavage enzymes shown in Table 2 and correctly separated into K6Ub and KMRC011
on-column cleavage, amino terminal sequence analysis of the released KMRC011: the USPI clearly cleaved the immediate side of K6Ub of K6UbKMRC011 so that only KMRC011 was separated and purified
